Measured values from patent US20120164688A1.

Key:
[1] = molecular target: human neurotrophin-3 (NT-3) (human) (UniProt P20783); assay: BIACORE; 20 nM NT-3 + 500 nM agent, % NT-3 bound to TrkC-hFc chip (reference)
[2] = molecular target: human nerve growth factor (NGF) (human) (UniProt P01138); assay: BIACORE blocking; negative control, % free NGF bound to p75-hFc chip
[3] = molecular target: human nerve growth factor (NGF) (human) (UniProt P01138); assay: BIACORE blocking; negative control, % free NGF bound to TrkA-hFc chip
[4] = molecular target: human neurotrophin-3 (NT-3) (human) (UniProt P20783); assay: BIACORE; 20 nM NT-3 + 500 nM agent, % NT-3 bound to TrkA-hFc chip (reference)
[5] = molecular target: human neurotrophin-3 (NT-3) (human) (UniProt P20783); assay: BIACORE; 20 nM NT-3 + 500 nM agent, % NT-3 bound to p75-hFc chip (reference)
[6] = molecular target: human neurotrophin-3 (NT-3) (human) (UniProt P20783); assay: BIACORE; 20 nM NT-3 + 500 nM agent, % NT-3 bound to TrkB-hFc chip (reference)
[7] = molecular target: human neurotrophin-3 (NT-3) (human) (UniProt P20783); assay: BIACORE; 20 nM NT-3 + 500 nM agent, % NT-3 bound to TrkC-hFc chip
[8] = molecular target: human nerve growth factor (NGF) (human) (UniProt P01138); assay: BIACORE blocking; % free NGF bound to p75-hFc chip
[9] = molecular target: human neurotrophin-3 (NT-3) (human) (UniProt P20783); assay: BIACORE SPR; mAb captured, 20 nM NT-3
[10] = molecular target: human neurotrophin-3 (NT-3) (human) (UniProt P20783); assay: BIACORE SPR; NT-3 1.25 nM to 40 nM
rat NGF (rNGF) (rat) [11] = molecular target: rat NGF (rNGF) (rat) (UniProt P25427); assay: BIACORE SPR; purified mAb
Sequence of rat NGF (rNGF) (rat) (P25427 122-241 limits assumed): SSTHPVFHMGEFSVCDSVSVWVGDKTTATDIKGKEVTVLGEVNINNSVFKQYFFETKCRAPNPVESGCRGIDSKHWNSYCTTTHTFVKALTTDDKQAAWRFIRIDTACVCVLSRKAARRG

mouse NGF (mNGF) (mouse) [12] = molecular target: mouse NGF (mNGF) (mouse) (UniProt P01139); assay: BIACORE SPR; purified mAb
Sequence of mouse NGF (mNGF) (mouse) (P01139 122-241 limits assumed): as the sequence (P25427 122-241 limits assumed) above, with G40A, K50R, P61S, D94E, A117T counted along it

[13] = molecular target: human nerve growth factor (NGF) (human) (UniProt P01138); assay: BIACORE SPR; purified mAb
[14] = molecular target: human nerve growth factor (NGF) (human) (UniProt P01138); assay: BIACORE SPR; mAb captured, human NGF injected
[15] = molecular target: human nerve growth factor (NGF) (human) (UniProt P01138); assay: BIACORE SPR; mAb captured, 20 nM NGF
[16] = molecular target: human neurotrophin-3 (NT-3) (human) (UniProt P20783); assay: BIACORE; 20 nM NT-3 + 500 nM agent, % NT-3 bound to TrkA-hFc chip
[17] = molecular target: human neurotrophin-3 (NT-3) (human) (UniProt P20783); assay: BIACORE; 20 nM NT-3 + 500 nM agent, % NT-3 bound to TrkB-hFc chip
rat NGF (rNGF) (rat) [18] = molecular target: rat NGF (rNGF) (rat) (UniProt P25427); assay: BIACORE SPR
mouse NGF (mNGF) (mouse) [19] = molecular target: mouse NGF (mNGF) (mouse) (UniProt P01139); assay: BIACORE SPR
[20] = molecular target: human nerve growth factor (NGF) (human) (UniProt P01138); assay: BIACORE SPR
[21] = molecular target: human neurotrophin-3 (NT-3) (human) (UniProt P20783); assay: cell-based or functional assay
[22] = molecular target: human nerve growth factor (NGF) (human) (UniProt P01138); assay: cell-based or functional assay
[23] = molecular target: human neurotrophin-3 (NT-3) (human) (UniProt P20783); assay: BIACORE; 20 nM NT-3 + 500 nM agent, % NT-3 bound to p75-hFc chip
[24] = molecular target: human nerve growth factor (NGF) (human) (UniProt P01138); assay: BIACORE blocking; % free NGF bound to TrkA-hFc chip
[25] = molecular target: human nerve growth factor (NGF) (human) (UniProt P01138); assay: BIACORE SPR; complex dissociation half-life

Sequence of human nerve growth factor (NGF) (human) (P01138 122-241 limits assumed): as the sequence (P25427 122-241 limits assumed) above, with T3S, V6I, M9R, T37M, A60D, E65D, T92M, D94G, A117V, G120A counted along it
Sequence of human neurotrophin-3 (NT-3) (human) (P20783 139-257 limits assumed): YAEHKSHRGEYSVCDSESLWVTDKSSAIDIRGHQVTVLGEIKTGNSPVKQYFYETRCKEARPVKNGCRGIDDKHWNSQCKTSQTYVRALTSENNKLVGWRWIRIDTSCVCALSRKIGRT

Question: What does the source list for “IgG1 control (AVASTIN®; Genentech, CA) (antibody)”?
Answer: % binding [1]: 100%; % Binding p75-hFc [2]: 116%; % Binding TrkA-hFc [3]: 116%; % binding [4]: 100%; % binding [5]: 100%; % binding [6]: 100%

Question: Which results are given for “humanized anti-human NGF monoclonal antibody E3 ("RN624") (tanezumab; CAS Registry No. 880266-57-9)”?
Answer: % binding [7]: 8%; % Binding p75-hFc [8]: 16%; Kd [9]: 1100 pM; Kd [10]: 1100 pM; Kd (rat NGF (rNGF) (rat) [11]): 1.51 pM; Kd (mouse NGF (mNGF) (mouse) [12]): 1.4 pM; Kd [13]: 1.25 pM; t1/2 [13]: 35 h; Kd [14]: 1.3 pM; Kd [15]: 1.3 pM; % binding [16]: 7%; % binding [17]: 8%; Kd (rat NGF (rNGF) (rat) [18]): 1.5 pM; Kd (mouse NGF (mNGF) (mouse) [19]): 1.4 pM; Kd [20]: 1.25 pM; IC50, HEK293-TrkC SRE-luciferase [21]: 150000 to 200000 pM; IC50, PC12 SRE-luciferase with 75 nM NT-3 [21]: 105000 pM; IC50 (pM), PC12 SRE-luciferase [22]: 4.9 pM; MG87 IC50 [22]: < 186 pM; PC12 IC50 [22]: 21 pM; % binding [23]: 19%; % Binding TrkA-hFc [24]: 10%; t1/2 [25]: 35 h
